One data set concerns M200 filamentous bundles. In words: Electron microscopy of myosin IIA tail fragments. The arrangement: species or system human. How it is done: Fig. 8 Characterisation of myosin IIA coiled-coil tail fragments. Metal-shadowed electron micrographs of (a) M200 and (b) M111 deposited from 0.5 M ammonium acetate. Scale bar represents 50 nm. (c and d) Electron micrographs of a negatively stained M200 tail fragment. Fields of M200 (c) in the absence and (d) in the presence of a 2-fold molar excess of S100A4, respectively. Arrows point to individual strands emerging from images of filamentous bundles. The samples were prepared in 0.1 M sodium acetate buffer, where M200 formed large filamentous aggregates but were solubilised in the presence of S100A4. Scale bar represents 200 nm (see Materials and Methods for details).
For negative staining, the stock solution of the M200 tail fragment was diluted with a solution consisting of 0.1 M Na-acetate, 3 mM MgCl2, 0.1 mM CaCl2, 10 mM imidazole, and 5 mM NaH2PO4 (pH 7.0), with or without 14 μM S100A4, to give a final concentration of 7 μM M200. Following dilution, 5 μl of the mixture was applied to a grid with a thin carbon film supported by a holey carbon film, and the grid was negatively stained using 1% uranyl acetate. For metal shadowing, the stock solutions of the M200 and M111 tail fragments were diluted with 0.5 M ammonium acetate solution to give a final concentration of 5 μM protein. This was mixed with an equal volume of glycerol, and the resulting mixture was sprayed onto freshly cleaved mica then rotary shadowed with platinum at an angle of 6°.[46] Grids were examined in a Philips CM120 electron microscope (FEI, Hillsboro, OR) operated at 80 kV. Images were recorded on a 2000 × 2000 F224HD slow-scan CCD camera (TVIPS, Gauting, Germany) at a magnification of 65,000× (0.37 nm pixel^− 1). The lengths of nonoverlapping well-shadowed molecules were measured as described by Burgess et al.[47]

Data set [1] concerns the target T1, S100A4 (Homo sapiens, UniProt P26447).
T1 construct: We used full-length S100A4 for this analysis; made in house; host or cells: Escherichia coli BL21(DE3)
Description: Quin-2 fluorescence, Ca^2+ dissociation from S100A4 in the presence of target peptides. The format is binding. How it is done:
Ca^2+ dissociation measurements for wild-type S100A4, using Quin-2 as described above, were repeated as a control for the effect of target peptides on this process. On mixing 10 μM S100A4 in the presence of Ca^2+ with 100 μM Quin-2, the observed profile was fitted to a single exponential with kobs = 17 s^− 1 (Fig. 5a; cf. k− 1 in Scheme 1).
Fig. 5 Dissociation of Ca^2+ from S100A4 in the absence and in the presence of target peptides monitored using Quin-2 fluorescence. (a) Mixed with 100 μM Quin-2 was 10 μM S100A4 + 50 μM Ca^2+ (stopped-flow reaction chamber concentrations). A superposed fit to a single exponential yields kobs = 17 s^− 1. […] (d) As in (a), but with 2.5 μM M200 premixed with 5 μM S100A4. A biphasic exponential fit yielded rate constants of 13 s^− 1 (A = 26%) and 0.30 s^− 1 (A = 74%). […] Experiments were carried out in either 20 mM NaCl, 20 mM Tris, 1 mM DTT, and 100 μM Ca^2+ at pH 7.5 and 20 °C (a and b; cf. Malashkevich et al.[17]), or 100 mM NaCl, 10 mM Hepes, and 100 μM Ca^2+ at pH 7.5 and 20 °C (c and d). […] Rate constants were unaffected by the inclusion of 1 mM Mg^2+.
Stopped-flow measurements were carried out using an SX18-MV apparatus (Applied Photophysics Ltd., Leatherhead, UK) with a dead time of 1.5 ms.[40] Records were generally captured on a logarithmic time base. Absorption (turbidity) measurements were usually recorded using a 10-mm pathlength, while fluorescence was recorded with a 2-mm pathlength for excitation and emission. The stated concentrations of components refer to the reaction chamber after mixing, unless otherwise indicated. Tyrosine fluorescence was excited at 280 nm, and the emission was collected through a UG11 bandpass filter plus a 305-nm longpass filter.[18] Fluorescein fluorescence was excited at 480 nm, and the emission was detected through a 515-nm longpass filter. Quin-2 fluorescence was measured by excitation at 336 nm, and emission was collected with a 455-nm longpass filter. For simultaneous recording of light scatter, a second channel was monitored through a UG11 filter. Rate constants were obtained by fitting to single-exponential or double-exponential functions using Kaleidagraph (Synergy Software) or Applied Photophysics Pro-Data software. Modeling of kinetic schemes was performed using Berkeley Madonna software.

Data set [2] has as its target T1, S100A4. In words: Ca^2+ dependence of M200 turbidity in the presence of S100A4. Type of data set: biochemical. As to conditions: 5 μM M200 + S100A4; 100 mM NaCl, 20 mM Hepes, 1 mM Mg^2+, 1 mM EGTA, 1 μM Fura-2; read-out: apparent Kd for Ca^2+ binding. The text has this:
The decrease in fluorescence, […]
that F-M16N binding was slightly faster.
The equilibrium constant (K5) for dissociation of the M200.S100A4.Ca2+ complex The value of K5 (scheme 2) was estimated from two independent experiments. From the competition […]
inhibition in the amplitude of the turbidity change arising from 5 M M200 at saturating Ca2+ concentrations. Under these conditions the free S100A4.Ca2+ concentration is ~ 0.06 M based on K2 = 3 […]
concentration will remain close to its critical concentration (K4 = 0.1 M), so that K5 = 0.1 * 0.06 / 5 ≈ 0.001 M, which represents the binding of S100A4.Ca2+ to free M200.
A second estimate was calculated from the apparent Ca2+ binding constant observed in the turbidity assay
(Fig. S6c). 5 M M200 in the presence of S100A4 and 1 mM EGTA gave a high turbidity in 0.1 M NaCl buffer, as S100A4 binds weakly under these conditions. Addition of aliquots of Ca2+ caused filament dissociation as the free Ca2+ rose, to give an apparent binding constant for Ca2+ of 0.14 M (Fig. S6c). At […]
contained 100 mM NaCl, 20 mM Hepes, 1 mM Mg2+, 1 mM EGTA and 1 µM Fura-2. Ca2+ was added in l aliquots and the turbidity measured (using the 10 mm path length). The free Ca2+ was calculated from the ratio of the Fura-2 340 nm to 362 nm excitation peaks, assuming a Kd of 0.224 M 1, measured between each addition of Ca2+ (using the 2 mm path length for excitation).

Where [3] appears, read: 2.5 μM M200 premixed with 5 μM S100A4.

T1 sequence (P26447 whole entry): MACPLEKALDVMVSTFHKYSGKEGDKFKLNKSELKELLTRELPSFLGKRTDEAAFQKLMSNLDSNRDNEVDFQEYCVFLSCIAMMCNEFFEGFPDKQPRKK

B1: M200: His-tagged human NM-MHC IIA residues Q1761-E1960, V1913I substitution (protein, UniProt P35579 1761-1960, looked up, variant V1913I)
chain: QINTDLNLERSHAQKNENARQQLERQNKELKVKLQEMEGTVKSKYKASITALEAKIAQLEEQLDNETKERQAACKQVRRTEKKLKDVLLQVDDERRNAEQYKDQADKASTRLKQLKRQLEEAEEEAQRANASRRKLQRELEDATETADAMNREISSLKNKLRRGDLPFVVPRRMARKGAGDGSDEEVDGKADGAEAKPAE
modifications: His tag
notes: His-tagged human NM-MHC IIA residues Q1761-E1960, V1913I substitution
For the molecule B1, in the data set on M200 filamentous bundles (0.1 M Na-acetate), the filamentous bundle width was around 100 nm and the individual strand width entry was “about 10 nm”. In addition, the “mean length of coiled coil” value in the data set on M200 filamentous bundles (metal shadowed, 0.5 M ammonium acetate, mean ± SD, n = 132) turned out to be 26.4 ± 2.03 nm. Besides, in the data set with S100A4 [1] (setting [3]), the fast-phase amplitude was determined as 26% and the slow-phase amplitude is 74%. Further, the slow-phase rate constant in the data set with S100A4 [1] (2.5 μM M200 premixed with 5 μM S100A4, 100 mM NaCl) is 0.30 s^− 1. The fast-phase rate constant with S100A4 [1] (2.5 μM M200 premixed with 5 μM S100A4, 100 mM NaCl, 10 mM Hepes, 100 μM Ca^2+, pH 7.5, 20 °C) turned out to be 13 s^− 1. In the data set with S100A4 [1] (in presence of coiled-coil fragments), the “slower release of Ca^2+” value is 0.3–0.5 s^− 1. For the same molecule, the “Ca^2+ dissociation rate constant from complex (k− 3), comparison” value with S100A4 [1] (peptide–S100A4–Ca^2+ complex) is given as 0.3 s^− 1. In addition, in the data set with S100A4 [2], the Kd amounted to 140 nM.

Source of the values: publication PMC3025356, “Mechanism of the Ca^2+-Dependent Interaction between S100A4 and Tail Fragments of Nonmuscle Myosin Heavy Chain IIA” (Journal of Molecular Biology, 2011).
